Test [1] deals with T1, uS13c, chloroplast ribosomal protein S13 (spinach (Spinacia oleracea) (endogenous …, UniProt P82163 48-172)).
T1 sequence (looked up): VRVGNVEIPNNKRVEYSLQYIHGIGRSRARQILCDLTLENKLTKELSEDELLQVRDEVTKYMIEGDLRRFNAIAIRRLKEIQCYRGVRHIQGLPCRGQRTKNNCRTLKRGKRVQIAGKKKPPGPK
Nature of the test: cryo-EM structure.

The target in test [2] is T2, bS1c, chloroplast ribosomal protein S1 (spinach (Spinacia oleracea) (endogenous …, UniProt P29344 42-411)).
T2 sequence (looked up): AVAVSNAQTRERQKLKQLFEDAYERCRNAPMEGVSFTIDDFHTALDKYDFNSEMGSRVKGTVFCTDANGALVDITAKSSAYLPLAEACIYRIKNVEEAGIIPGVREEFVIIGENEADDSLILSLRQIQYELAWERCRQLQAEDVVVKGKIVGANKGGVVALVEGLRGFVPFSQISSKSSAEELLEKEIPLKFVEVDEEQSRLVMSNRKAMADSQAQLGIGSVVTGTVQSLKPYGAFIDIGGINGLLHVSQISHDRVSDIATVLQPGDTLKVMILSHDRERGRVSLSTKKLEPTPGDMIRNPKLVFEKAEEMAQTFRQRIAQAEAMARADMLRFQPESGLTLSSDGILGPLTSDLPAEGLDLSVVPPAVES
Put plainly: cryo-EM structure.

Regarding GRGDRKTAKGKRFNHSFGNARPKNKNKGRGPPKAPIFPKGDPSQKED (natural protein, UniProt P47910 55-101, looked up) [bTHXc (PSRP4), plastid-specific ribosomal protein of the chloroplast ribosome small subunit], in test [1], the binding result is reported as “binds”.

B1: uS2c, chloroplast ribosomal protein S2 (natural protein, UniProt P08242 1-236, looked up)
chain: MTRRYWNINLEEMMEAGVHFGHGTRKWNPRMSPYISAKCKGIHIINLTRTARFLSEACDLVFDASSRGKQFLIVGTKNKAADSVARAAIRARCHYVNKKWLGGMLTNWSTTETRLHKFRDLRMEQTAGRLARLPKRDAAVVKRQLSHLQTYLGGIKYMTGLPDIVIIVDQQEEYTALRECITLGIPTICLIDTNCNPDLADISIPANDDAIASIRLILTKLVFAICEGRSSYIRNP
As to B1, in test [2], the binding result was “binds”.

For the origin of these results see publication PMC5737520 (Nucleic Acids Research, 2017).
